Patent WO2022194311A2

How the values were obtained:
Test in all cases: SPR (Biacore 8K), His-tagged FcRn captured by anti-His antibody on CM5 chip, pH 6.0
[1] = target: cynomolgus monkey FcRn (cynomolgus monkey) (UniProt Q8SPV9)
rat FcRn (rat) = rat FcRn (rat) (UniProt P13599)
human FcRn (human) = human FcRn (human) (UniProt P55899)
Chain of human FcRn (human) (P55899 24-297 limits assumed, form in doubt): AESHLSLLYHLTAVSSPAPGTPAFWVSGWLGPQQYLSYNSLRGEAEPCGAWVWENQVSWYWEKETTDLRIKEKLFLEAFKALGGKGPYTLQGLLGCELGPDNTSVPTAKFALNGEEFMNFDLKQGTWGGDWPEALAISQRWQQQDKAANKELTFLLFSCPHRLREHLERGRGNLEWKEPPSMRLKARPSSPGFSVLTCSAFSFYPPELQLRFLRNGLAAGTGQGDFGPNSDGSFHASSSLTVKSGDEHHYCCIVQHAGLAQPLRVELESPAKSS

Chain of rat FcRn (rat) (P13599 23-298 limits assumed, form in doubt): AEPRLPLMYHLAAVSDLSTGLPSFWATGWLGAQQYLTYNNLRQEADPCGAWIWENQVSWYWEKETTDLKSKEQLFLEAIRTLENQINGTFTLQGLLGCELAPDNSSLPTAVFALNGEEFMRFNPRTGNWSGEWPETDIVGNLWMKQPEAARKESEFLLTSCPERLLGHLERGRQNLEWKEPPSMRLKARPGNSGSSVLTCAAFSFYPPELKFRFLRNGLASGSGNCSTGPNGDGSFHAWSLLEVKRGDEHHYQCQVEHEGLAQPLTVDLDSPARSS
Chain of cynomolgus monkey FcRn (cynomolgus monkey) (Q8SPV9 24-297 limits assumed, form in doubt): as the sequence (P55899 24-297 limits assumed, form in doubt) above, with N39D, E44Q, G99S, S189G, S190N, L217M, S269T counted along it

Kd [1]: 10 nM
Kd (rat FcRn (rat)): 10 nM
Kd (human FcRn (human)): 10 nM
Substance: secukinumab (Cosentyx) (antibody)
